Substitutions are numbered along the chain they refer to. Numbers in names are those of the source.
T1: human TNFR2 (human, UniProt P20333 23-461)
T1 construct: Human TNFR2 over-expressed on CHO cells, full length on transduced NF-KB-GFP Jurkat cells, or native on human primary T cells; also called Hu TNFR2; TNFRSF1B
T1 sequence: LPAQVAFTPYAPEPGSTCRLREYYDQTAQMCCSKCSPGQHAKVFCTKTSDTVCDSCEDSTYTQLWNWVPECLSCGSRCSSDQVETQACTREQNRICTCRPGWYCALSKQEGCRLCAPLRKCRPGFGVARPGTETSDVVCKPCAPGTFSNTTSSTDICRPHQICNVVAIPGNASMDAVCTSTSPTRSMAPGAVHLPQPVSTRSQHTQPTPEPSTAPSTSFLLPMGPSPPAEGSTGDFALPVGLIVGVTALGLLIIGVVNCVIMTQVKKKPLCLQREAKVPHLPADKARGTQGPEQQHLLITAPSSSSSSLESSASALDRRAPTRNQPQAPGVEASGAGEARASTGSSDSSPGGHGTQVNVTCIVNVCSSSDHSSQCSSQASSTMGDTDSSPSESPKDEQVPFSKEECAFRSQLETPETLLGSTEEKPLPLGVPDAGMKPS

T2: human TNFR2 (human, UniProt P20333 23-461)
T2 construct: expressed on the surface of CHO cells; also called HuTNFR2; TNFRSF1B
T2 sequence: T1 sequence

B1: clone 1774 (antibody, V domains shown)
VH: QVQLVQSGAEVKKPGASVKVSCKVSGFSFPSSGVDWVRQAPGQGLEWLGVTWGVGSTHYNQKFQGRVTITKDNSKSTVYMELSSLRSEDTAVYYCASGEWDEGFVYWGQGTLVTVSS
VL: DIQLTQSPSFLSASVGDRVTITCKASQNVGTAVAWYQQKPGKAPKLLIYSASNRYTGVPSRFSGSGSGTEFTLTISSLQPEDFATYYCQQYSSYPLTFGGGTKVEIK
B2: clone 1773 (antibody, name in Kabat numbering, V domains shown)
VH: B1 VH
VL: B1 VL with S50A, N53T, R54L, Y55Q, T56S
B3: clone 1766 (antibody, V domains shown)
VH: B1 VH with N73T
VL: B1 VL
B4: TetraFab 2084 (antibody)
heavy: QVQLVQSGAEVKKPGASVKVSCKVSGFSFPSSGVDWVRQAPGQGLEWLGVTRGEGSTHYNQKFQGRVTITKDTSKSTVYMELSSLRSEDTAVYYCASGEWDEGFVYWGQGTLVTVSSASTKGPSVFPLAPSSKSTSGGTAALGCLVKDYFPEPVTVSWNSGALTSGVHTFPAVLQSSGLYSLSSVVTVPSSSLGTQTYICNVNHKPSNTKVDKKVEPKSCGGGGSQVQLVQSGAEVKKPGASVKVSCKVSGFSFPSSGVDWVRQAPGQGLEWLGVTRGEGSTHYNQKFQGRVTITKDTSKSTVYMELSSLRSEDTAVYYCASGEWDEGFVYWGQGTLVTVSSASTKGPSVFPLAPSSKSTSGGTAALGCLVKDYFPEPVTVSWNSGALTSGVHTFPAVLQSSGLYSLSSVVTVPSSSLGTQTYICNVNHKPSNTKVDKKVEPKSCDKTHTCPPCPAPEAAGAPSVFLFPPKPKDTLMISRTPEVTCVVVDVSHEDPEVKFNWYVDGVEVHNAKTKPREEQYNSTYRVVSVLTVLHQDWLNGKEYKCKVSNKALPAPIEKTISKAKGQPREPQVYTLPPSREEMTKNQVSLTCLVKGFYPSDIAVEWESNGQPENNYKTTPPVLDSDGSFFLYSKLTVDKSRWQQGNVFSCSVMHEALHNHYTQKSLSLSPGK
light: DIQLTQSPSFLSASVGDRVTITCKASQNVGTAVAWYQQKPGKAPKLLIYAASTLQSGVPSRFSGSGSGTEFTLTISSLQPEDFATYYCQQYNSYPFGGGTKVEIKRTVAAPSVFIFPPSDEQLKSGTASVVCLLNNFYPREAKVQWKVDNALQSGNSQESVTEQDSKDSTYSLSSTLTLSKADYEKHKVYACEVTHQGLSSPVTKSFNRGEC
notes: TetraFab
B5: TetraFab 2206 (antibody, human IgG1, kappa, name in Kabat numbering)
heavy: B4 heavy with R52W, E54V, R277W, E279V
light: DIQLTQSPSFLSASVGDRVTITCKASQNVGTAVAWYQQKPGKAPKLLIYAASTLQSGVPSRFSGSGSGTEFTLTISSLQPEDFATYYCQQYNSYPFGGGTKVEIKRTVAAPSVFIFPPSDEQLKSGVTASVVCLLNNFYPREAKVQWKVDNALQSGNSQESVTEQDSKDSTYSLSSTLTLSKADYEKHKVYACEVTHQGLSSPVTKSFNRGEC
notes: TetraFab; parental heavy chain
B6: TetraFab 2096 (antibody)
heavy: B4 heavy with W100S, D101T, W325S, D326T
light: B4 light
notes: TetraFab
B7: TetraFab 2109 (antibody)
heavy: B4 heavy with R52H, E54S, W100H, R277H, E279S, W325H
light: B4 light
notes: TetraFab
B8: TetraFab 2106 (antibody)
heavy: B4 heavy with R52L, E54H, W100R, R277L, E279H, W325R
light: B4 light
notes: TetraFab
B9: TetraFab 2108 (antibody)
heavy: B4 heavy with R52H, E54S, W100S, D101T, R277H, E279S, W325S, D326T
light: B4 light
notes: TetraFab
B10: TetraFab 2087 (antibody)
heavy: B4 heavy with R52H, E54S, R277H, E279S
light: B4 light
notes: TetraFab
B11: TetraFab 2112 (antibody)
heavy: B4 heavy with R52K, E54Q, R277K, E279Q
light: B4 light with N92Y, Y94T
notes: TetraFab
B12: TetraFab 2118 (antibody)
heavy: B4 heavy with R52W, E54V, W100H, R277W, E279V, W325H
light: B4 light with N92Y, Y94T
notes: TetraFab
B13: TetraFab 2125 (antibody)
heavy: B4 heavy with W100S, D101T, W325S, D326T
light: B4 light with N92Y, Y94T
notes: TetraFab
B14: TetraFab 2207 (antibody, human IgG1, kappa, name in Kabat numbering)
heavy: B4 heavy with R52W, E54V, R277W, E279V
light: B5 light with N92Y, Y94T
notes: as for B5
B15: TetraFab 2098 (antibody)
heavy: B4 heavy with W100R, W325R
light: B4 light
notes: TetraFab
B16: TetraFab 2113 (antibody)
heavy: B4 heavy
light: B4 light with N92Y, Y94T
notes: TetraFab
B17: TetraFab 2099 (antibody)
heavy: B4 heavy with W100Q, W325Q
light: B4 light
notes: TetraFab
B18: IgG 2202 (antibody, name in Kabat numbering, V domains shown)
VH: B1 VH with N73T
VL: DIQLTQSPSFLSASVGDRVTITCKASQNVGTAVAWYQQKPGKAPKLLIYAASTLQSGVPSRFSGSGSGTEFTLTISSLQPEDFATYYCQQYNSYPFGGGTKVEIKR
notes: IgG
B19: IgG 1997 (antibody, name in Kabat numbering, V domains shown)
VH: B1 VH with W52R, V54E, N73T, W100S, D101T
VL: B18 VL with N92Y, Y94T
notes: IgG
B20: IgG 2002 (antibody, name in Kabat numbering, V domains shown)
VH: B1 VH with W52F, G53Q, V54E, N73T, W100H
VL: B18 VL with N92Y, Y94T
notes: IgG
B21: IgG 1991 (antibody, name in Kabat numbering, V domains shown)
VH: B1 VH with W52H, V54S, N73T, W100R
VL: B18 VL
notes: IgG
B22: IgG 2203 (antibody, name in Kabat numbering, V domains shown)
VH: B1 VH with N73T
VL: B18 VL with N92Y, Y94T
notes: IgG
B23: TetraFab 2209 (antibody, human IgG1, kappa)
heavy: B4 heavy with R52W, E54V, R277W, E279V
light: DIQLTQSPSFLSASVGDRVTITCKASQNVGTAVAWYQQKPGKAPKLLIYAASTLQSGVPSRFSGSGSGTEFTLTISSLQPEDFATYYCLQYSSYPLTFGGGTKVEIKRTVAAPSVFIFPPSDEQLKSGVTASVVCLLNNFYPREAKVQWKVDNALQSGNSQESVTEQDSKDSTYSLSSTLTLSKADYEKHKVYACEVTHQGLSSPVTKSFNRGEC
notes: as for B5
B24: TetraFab 2208 (antibody, human IgG1, kappa)
heavy: B4 heavy with R52W, E54V, R277W, E279V
light: B23 light with Y91K
notes: as for B5
B25: TetraFab 2053 (antibody, human IgG1, kappa)
heavy: B4 heavy with R52W, E54V, R277W, E279V
light: B23 light with L89Q
notes: dual Fab heavy chain (outer VH-CH1, G4S linker, inner VH-CH1, human IgG1 Fc) pairing with 4 light chains; also called TF2053

What follows are molecules tested against human TNFR2 (human) (UniProt P20333) (assay: cell-based or functional assay).

Row | Molecule | EC50 Jurkat assay, With aggregates [µg/mL] | EC50 Jurkat assay, Without aggregates [µg/mL] | Loss of potency (without against with aggregates) [fold]
1 | MR2-1 (Hycult Biotech, ref #HM2007) (antibody) | 0.12 | 5.75 | 50

These molecules were tested against T1, human TNFR2 (assay: binding to human TNFR2 CHO cells).

Row | Molecule | EC50 [nM]
2 | B1 | 1.56
3 | B2 | 1.13
4 | B3 | 1.19

These molecules were tested against T2, human TNFR2 (assay: binding to human TNFR2 CHO cells).

Row | Molecule | binding result
5 | B4 | no binding
6 | B5 | no binding
7 | B6 | no binding
8 | B7 | no binding
9 | B8 | no binding
10 | B9 | no binding
11 | B10 | no binding
12 | B11 | no binding
13 | B12 | no binding
14 | B13 | no binding
15 | B14 | no binding
16 | B15 | no binding
17 | B16 | no binding
18 | B17 | no binding
19 | B18 | no binding
20 | B19 | no binding
21 | B20 | no binding
22 | B21 | no binding
23 | B22 | no binding

Each molecule was assayed against T2, human TNFR2 (assay: binding to human TNFR2 CHO cells, TetraFab format).

Row | Molecule | EC50 [nM]
24 | B23 | 0.15
25 | B24 | 2.3
26 | B25 | 0.7

— patent US20230406951A1 (Pfizer, published 2023)
